Assay results: patent publication US20120045459

B1: GST-tagged recombinant PTPsigma catalytic fragment (PTPRS-CTF; BC104812 aa1156-1501) (protein)
chain: IVMVPLRKSRGGQFLTPLGSPEDMDLEELIQDISRLQRRSLRHSRQLEVPRPYIAARFSVLPPTFHPGDQKQYGGFDNRGLEPGHRYVLFVLAVLQKSEPTFAASPFSDPFQLDNPDPQPIVDGEEGLIWVIGPVLAVVFIICIVIAILLYKNKPDSKRKDSEPRTKCLLNNADLAPHHPKDPVEMRRINFQTPDSGLRSPLREPGFHFESMLSHPPIPIADMAEHTERLKANDSLKLSQEYESIDPGQQFTWEHSNLEVNKPKNRYANVIAYDHSRVILQPIEGIMGSDYINANYVDGYRCQNAYIATQGPLPETFGDFWRMVWEQRSATIVMMTRLEEKSRIKC
B2: PTP1B (from Upstate) (protein)
chain: MEMEKEFEQIDKSGSWAAIYQDIRHEASDFPCRVAKLPKNKNRNRYRDVSPFDHSRIKLHQEDNDYINASLIKMEEAQRSYILTQGPLPNTCGHFWEMVWEQKSRGVVMLNRVMEKGSLKCAQYWPQKEEKEMIFEDTNLKLTLISEDIKSYYTVRQLELENLTTQETREILHFHYTTWPDFGVPESPASFLNFLFKVRESGSLSPEHGPVVVHCSAGIGRSGTFCLADTCLLLMDKRKDPSSVDIKKVLLEMRKFRMGLIQTADQLRFSYLAVIEGAKFIMGDSSVQDQWKELSHEDLEPPPEHIPPPPRPPKRILEPHN
B3: GST-tagged recombinant full-length MTMR6 (NM-004685.2) (protein)
chain: MEHIRTTKVEQVKLLDRFSTSNKSLTGTLYLTATHLLFIDSHQKETWILHHHIASVEKLALTTSGCPLVIQCKNFRTVHFIVPRERDCHDIYNSLLQLSKQAKYEDLYAFSYNPKQNDSERLQGWQLIDLAEEYKRMGVPNSHWQLSDANRDYKICETYPRELYVPRIASKPIIVGSSKFRSKGRFPVLSYYHQDKEAAICRCSQPLSGFSARCLEDEHLLQAISKANPVNRYMYVMDTRPKLNAMANRAAGKGYENEDNYSNIRFQFVGIENIHVMRSSLQKLLEVNGTKGLSVNDFYSGLESSGWLRHIKAVMDAAIFLAKAITVENASVLVHCSDGWDRTSQVCSLGSLLLDSYYRTIKGFMVLIEKDWISFGHKFSERCGQLDGDPKEVSPVFTQFLECVWHLTEQFPQAFEFSEAFLLQIHEHIHSCQFGNFLGNCQKEREELKLKEKTYSLWPFLLEDQKKYLNPLYSSESHRFTVLEPNTVSFNFKFWRNMYHQFDRTLHPRQSVFNIIMNMNEQNKQLEKDIKDLESKIKQRKNKQTDGILTKELLHSVHPESPNLKTSLCFKEQTLLPVNDALRTIEGSSPADNRYSEYAEEFSKSEPAVVSLEYGVARMTC

Target: phosphotyrosine peptide (Upstate)

Protein	in vitro phosphatase activity (malachite green, released phosphate)
B1	exhibiting significant activity against a tyrosine-phosphorylated peptide (p-Tyr)
B2	PTP1B, a bona fide PTPase, dephosphorylated p-Tyr exclusively
B3	only negligible activity against p-Tyr
